Assay results: patent US20250011363A1, “OPTIMIZED SHORTENED PEPTIDE THAT BINDS TO ACETYLCHOLINE RECEPTOR, AND USE THEREOF” (SKINMED CO., LTD., priority 2021, published 2025)

Molecular target: acetylcholine receptor (Homo sapiens, UniProt P02708)
Test: SPR binding affinity (RU) of optimized 5mer/6mer/7mer peptides, Examples 6-7
Settings: SPR, peptides tested at 10 μM
Method in brief: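 Using surface plasmon resonance, binding to the acetylcholine receptor was measured for each sequence at a single 10 μM concentration. Values are response units.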

[1] = 6mer-1 Top sequence (top combinations)

acetylcholine receptor, sequence (P02708 21-457): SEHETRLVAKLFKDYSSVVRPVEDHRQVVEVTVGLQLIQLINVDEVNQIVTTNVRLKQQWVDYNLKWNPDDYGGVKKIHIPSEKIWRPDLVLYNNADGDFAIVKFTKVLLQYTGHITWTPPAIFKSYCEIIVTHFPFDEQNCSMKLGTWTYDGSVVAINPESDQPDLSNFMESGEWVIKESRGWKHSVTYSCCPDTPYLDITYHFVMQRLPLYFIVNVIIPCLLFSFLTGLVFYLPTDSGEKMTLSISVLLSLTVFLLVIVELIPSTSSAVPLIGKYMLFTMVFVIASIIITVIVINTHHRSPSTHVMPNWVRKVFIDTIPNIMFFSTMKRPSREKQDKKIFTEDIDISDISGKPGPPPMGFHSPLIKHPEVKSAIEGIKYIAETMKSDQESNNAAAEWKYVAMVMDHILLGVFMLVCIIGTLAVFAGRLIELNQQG

Substance | Binding affinity [1] | Binding affinity (6mer-1 Top sequence)
6mer-1-164 (KRGQYK) | 145 Ru | 
6mer-1-165 (KKWFTK) | 148 Ru | 
6mer-1-166 (RRWYSK) | 148 Ru | 
6mer-1-167 (RRRYQR) | 122 Ru | 
6mer-1-168 (KRWFCK) | 131 Ru | 
6mer-1-169 (RRQQSK) | 153 Ru | 
6mer-1-170 (RKSFYR) | 148 Ru | 
6mer-1-171 (RKQFQK) | 123 Ru | 
6mer-1-172 (RRLIRK) | 153 Ru | 
6mer-1-173 (RKQYYR) | 123 Ru | 
6mer-1-174 (KKGVCR) | 154 Ru | 
6mer-1-175 (RRRIQK) | 137 Ru | 
6mer-1-176 (KKVYCK) | 121 Ru | 
6mer-1-177 (KRGYRR) | 121 Ru | 
6mer-1-178 (RKRYQK) | 139 Ru | 
6mer-1-179 (KRSQYR) | 148 Ru | 
6mer-1-180 (RKLVRK) | 146 Ru | 
6mer-1-181 (KKGVLR) | 148 Ru | 
6mer-1-182 (KRGICK) | 147 Ru | 
6mer-1-183 (KKGQTR) | 121 Ru | 
6mer-1-184 (KRQICR) | 139 Ru | 
6mer-1-185 (KRQLRK) | 153 Ru | 

Substance | Binding affinity [1] | Binding affinity (6mer-1 Top sequence)
6mer-1-186 (RRRVYK) | 147 Ru | 
6mer-1-187 (RKLFYK) | 139 Ru | 
6mer-1-188 (RKSLQK) | 122 Ru | 
6mer-1-189 (KKSYSK) | 137 Ru | 
6mer-1-190 (RKLYYR) | 153 Ru | 
6mer-1-191 (KKQILK) | 139 Ru | 
6mer-1-192 (KRQYQR) | 127 Ru | 
6mer-1-193 (KRVQLK) | 149 Ru | 
6mer-1-194 (RKWQRR) | 144 Ru | 
6mer-1-195 (KRGISR) | 122 Ru | 
6mer-1-196 (RKWRRK) | 142 Ru | 
6mer-1-197 (RRSIRR) | 139 Ru | 
6mer-1-198 (KRLFCR) | 148 Ru | 
6mer-1-199 (KKQVQK) | 151 Ru | 
6mer-1-200 (RKLYQR) | 142 Ru | 
6mer-1-201 (RRRIQR) | 151 Ru | 
6mer-1-202 (RRQLTK) | 154 Ru | 
6mer-1-203 (RRQITR) |  | 142 Ru
6mer-1-204 (KKRQRR) |  | 154 Ru
6mer-1-205 (KRWRLR) |  | 133 Ru
6mer-1-206 (RRLQTR) |  | 121 Ru
6mer-1-207 (KKSQQR) |  | 151 Ru

Substance | Binding affinity [1] | Binding affinity (6mer-1 Top sequence)
6mer-1-208 (KRSIQR) |  | 122 Ru
6mer-1-209 (RKGYTR) |  | 121 Ru
6mer-1-211 (KKQLLR) |  | 123 Ru
6mer-1-212 (RRRICR) |  | 148 Ru
6mer-1-213 (KRRVRK) |  | 127 Ru
6mer-1-214 (RRSYCK) |  | 139 Ru
6mer-1-215 (RKRYSR) |  | 136 Ru
6mer-1-216 (RKSIQR) |  | 148 Ru
6mer-1-217 (KRVLQR) |  | 135 Ru
6mer-1-218 (KKQVTR) |  | 126 Ru
6mer-1-219 (RRLFCR) |  | 121 Ru
6mer-1-220 (KRQRQK) |  | 148 Ru
6mer-1-221 (KKWFQR) |  | 148 Ru
6mer-1-222 (RRRVRR) |  | 145 Ru
6mer-1-223 (KKRRRK) |  | 133 Ru
6mer-1-224 (KRGFLR) |  | 142 Ru
6mer-1-226 (RRWITR) |  | 128 Ru
6mer-1-227 (KRLVQK) |  | 139 Ru
6mer-1-228 (KRVIYK) |  | 139 Ru
6mer-1-229 (RRRLLR) |  | 153 Ru
6mer-1-230 (RKGYCK) |  | 128 Ru
6mer-1-231 (KRQRTK) |  | 136 Ru

Substance | Binding affinity [1] | Binding affinity (6mer-1 Top sequence)
6mer-1-232 (RRRICK) |  | 146 Ru
6mer-1-233 (KKWQSR) |  | 128 Ru
6mer-1-234 (RRGISR) |  | 142 Ru
6mer-1-235 (KKRYCR) |  | 148 Ru
6mer-1-236 (RKLISR) |  | 151 Ru
6mer-1-237 (RKSRYK) |  | 137 Ru
6mer-1-238 (KKGQQK) |  | 154 Ru
6mer-1-239 (RKVLCR) |  | 136 Ru
6mer-1-240 (RRSRRR) |  | 148 Ru
6mer-1-241 (RRLYYK) |  | 148 Ru
6mer-1-242 (KRQYLK) |  | 148 Ru
6mer-1-243 (KKWYLR) |  | 136 Ru
6mer-1-244 (RRRVQK) |  | 144 Ru
6mer-1-245 (RRGFRR) |  | 142 Ru
6mer-1-246 (RRLVSR) |  | 122 Ru
6mer-1-247 (KKVRQK) |  | 122 Ru
6mer-1-248 (RRLIYK) |  | 151 Ru
6mer-1-249 (RKGVSR) |  | 142 Ru
6mer-1-250 (RRVICR) |  | 142 Ru
6mer-1-251 (RKVQSK) |  | 133 Ru
6mer-1-252 (RRWIRR) |  | 131 Ru
6mer-1-253 (RRVQLK) |  | 145 Ru

Substance | Binding affinity [1] | Binding affinity (6mer-1 Top sequence)
6mer-1-254 (RKSLSK) |  | 137 Ru
6mer-1-255 (KKGFQK) |  | 139 Ru
6mer-1-256 (KRVRTK) |  | 125 Ru
6mer-1-257 (RKWVTR) |  | 124 Ru
6mer-1-258 (KKLQYK) |  | 137 Ru
6mer-1-259 (KRRYRK) |  | 141 Ru
6mer-1-260 (RKQRTK) |  | 141 Ru
6mer-1-261 (KRWVTR) |  | 121 Ru
6mer-1-262 (RKQLQR) |  | 139 Ru
6mer-1-263 (RKSYTK) |  | 146 Ru
6mer-1-264 (RRQYQR) |  | 128 Ru
6mer-1-265 (RKSVCR) |  | 145 Ru
6mer-1-266 (KKGRLK) |  | 144 Ru
6mer-1-267 (KRRLLR) |  | 139 Ru
6mer-1-268 (KRRQSK) |  | 144 Ru
6mer-1-269 (RKRRQR) |  | 142 Ru
6mer-1-270 (KRGLRR) |  | 149 Ru
6mer-1-271 (RRQVSK) |  | 122 Ru
6mer-1-272 (KKQVSR) |  | 139 Ru
6mer-1-273 (KKQVSK) |  | 137 Ru
6mer-1-275 (RKRVLK) |  | 123 Ru
6mer-1-276 (RRVICK) |  | 128 Ru

Substance | Binding affinity [1] | Binding affinity (6mer-1 Top sequence)
6mer-1-277 (KKGLCR) |  | 141 Ru
6mer-1-278 (KRQQTR) |  | 142 Ru
6mer-1-279 (RRLRYR) |  | 145 Ru
6mer-1-280 (RKLQCK) |  | 149 Ru
6mer-1-281 (KRLLCR) |  | 154 Ru
6mer-1-282 (RRRRYR) |  | 121 Ru
6mer-1-283 (KKWVQK) |  | 133 Ru
6mer-1-284 (KRSRQK) |  | 145 Ru
6mer-1-285 (KRWVQR) |  | 122 Ru
6mer-1-286 (RKLISK) |  | 139 Ru
6mer-1-287 (RKWLTR) |  | 136 Ru
6mer-1-288 (KKVQQR) |  | 148 Ru
6mer-1-289 (RKRYYR) |  | 153 Ru
6mer-1-290 (RKQLTK) |  | 146 Ru
6mer-1-291 (KKQIRK) |  | 142 Ru
6mer-1-292 (RKWQTK) |  | 122 Ru
6mer-1-293 (RKRVCK) |  | 154 Ru
6mer-1-294 (KKLYRR) |  | 123 Ru
6mer-1-295 (KRQRCR) |  | 148 Ru
6mer-1-296 (RKSIRR) |  | 121 Ru
6mer-1-297 (RRGFSK) |  | 139 Ru
